Biological target: SARS-CoV-2 spike (S) protein, expressed from a synthetic S gene (SARS-CoV-2, UniProt P0DTC2)
Assay: cell-based or functional assay

## HVLGDISGINASVVQIQKEIDRLNEVAKNLHESLIYLQE [peptide #121 (mutated HR2 39-mer, 'Highest Affinity')]
  IC50, SARS-CoV-2 Spike-mediated cell-cell fusion: 720 nM
  IC50, SARS-CoV-2 pseudovirus infection in Calu-3 cells: 160 nM
  IC50, SARS-CoV-2 pseudovirus infection in VeroE6: > 10000 nM
  IC50, TMPRSS2-dependent plasma membrane pathway in VeroE6-TMPRSS2: < 1000 nM

Source: US11479582B2 (KING FAISAL UNIVERSITY, dated 2022)
